Assay [1] deals with HLA-C*14:02. Nature of the assay: IEDB peptide-MHC binding, purified MHC/direct/fluorescence; filed as Kd, often an IC50 or EC50 that approximates it; ≥ and ≤ were set here for values at or beyond the usual limits of such assays.
The target of assay [2] is HLA-B*07:02. Nature of the assay: IEDB peptide-MHC binding, purified MHC/competitive/fluorescence; ≥ and ≤ were set here for values at or beyond the usual limits of such assays.
The target of the next assay is HLA-B*08:01. The assay is described as above. As to conditions: source organism: Zaire ebolavirus.
The target in a further assay is HLA-B*15:02. Nature of the assay: IEDB peptide-MHC binding, purified MHC/direct/fluorescence; filed as Kd, often an IC50 or EC50 that approximates it; ≥ and ≤ were set here for values at or beyond the usual limits of such assays. Conditions: source organism: dengue virus type 4.
A further assay deals with HLA-C*15:02. The assay is described as above. As to conditions: source organism: dengue virus type 1.
The target in assay [3] is HLA-B*46:01. The assay is described as above. As to conditions: source organism: Dengue virus 1 Singapore/S275/1990.
Assay [4] deals with HLA-A*26:01. The assay can be described thus: IEDB peptide-MHC binding, purified MHC/competitive/radioactivity; filed as Kd, often an IC50 or EC50 that approximates it; ≥ and ≤ were set here for values at or beyond the usual limits of such assays. As to conditions: source organism: Dengue virus 1 Brazil/97-11/1997.
The target in the next assay is HLA-A*31:01. Nature of the assay: IEDB peptide-MHC binding, purified MHC/competitive/fluorescence; filed as Kd, often an IC50 or EC50 that approximates it; ≥ and ≤ were set here for values at or beyond the usual limits of such assays. As to conditions: source organism: Dengue virus 2 Thailand/NGS-C/1944.
The target of assay [5] is HLA-A*11:01. The assay is described as above. As to conditions: source organism: Dengue virus 2 Thailand/NGS-C/1944.
In another assay the target is HLA-A*24:02. Nature of the assay: IEDB peptide-MHC binding, purified MHC/competitive/fluorescence; ≥ and ≤ were set here for values at or beyond the usual limits of such assays. Conditions: source organism: Variola virus.
Assay [6] addresses HLA-B*15:01. The description is as above.
Assay [7] addresses HLA-A*11:01. The assay is described as above. Conditions: source organism: Variola virus.
The target in assay [8] is HLA-A*03:01. The assay is described as above. As to conditions: source organism: Variola virus.
Assay [9] concerns the target HLA-A*02:01. The assay is described as above.
Assay [10] concerns the target HLA-A*02:01. Nature of the assay: IEDB peptide-MHC binding, purified MHC/competitive/radioactivity; filed as Kd, often an IC50 or EC50 that approximates it; ≥ and ≤ were set here for values at or beyond the usual limits of such assays. Conditions: source organism: Homo sapiens.
The target in assay [11] is HLA-A*02:01. The assay can be described thus: IEDB peptide-MHC binding, purified MHC/competitive/radioactivity; ≥ and ≤ were set here for values at or beyond the usual limits of such assays.
For the next assay, the target named is HLA-C*07:02. The assay can be described thus: IEDB peptide-MHC binding, purified MHC/direct/fluorescence; filed as Kd, often an IC50 or EC50 that approximates it; ≥ and ≤ were set here for values at or beyond the usual limits of such assays.
The target in the next assay is HLA-A*68:02. The description is as above. Conditions: source organism: Orthohantavirus andesense.
For a further assay, the target named is HLA-A*02:12. Described as above. Conditions: source organism: Orthohantavirus andesense.
The target of another assay is HLA-C*03:03. Described as above.
Assay [12] concerns the target HLA-A*03:01. The assay is described as above. Conditions: source organism: Orthohantavirus andesense.
For another assay, the target named is HLA-A*02:19. The assay is described as above. As to conditions: source organism: Orthohantavirus andesense.
Assay [13] deals with HLA-A*02:01. The assay is described as above. Conditions: source organism: Orthohantavirus andesense.
In assay [14] the target is HLA-A*24:03. Described as above. Conditions: source organism: Orthohantavirus andesense.
The target of a further assay is HLA-A*29:02. The assay is described as above. As to conditions: source organism: Orthohantavirus andesense.
A further assay concerns the target HLA-B*15:17. Nature of the assay: IEDB peptide-MHC binding, purified MHC/competitive/fluorescence; filed as Kd, often an IC50 or EC50 that approximates it; ≥ and ≤ were set here for values at or beyond the usual limits of such assays.
The target of another assay is HLA-B*18:01. The description is as above. Conditions: source organism: Orthohantavirus andesense.
The target in another assay is HLA-A*69:01. The description is as above. Conditions: source organism: Orthohantavirus andesense.
The target in another assay is HLA-B*27:03. The description is as above.
The next assay addresses HLA-B*51:01. Described as above. As to conditions: source organism: Orthohantavirus andesense.
The next assay addresses HLA-B*57:01. The assay is described as above. As to conditions: source organism: Orthohantavirus andesense.
The target in assay [15] is HLA-A*26:01. The description is as above.
The target of assay [16] is HLA-B*07:02. Nature of the assay: IEDB peptide-MHC binding, purified MHC/direct/fluorescence; filed as Kd, often an IC50 or EC50 that approximates it; ≥ and ≤ were set here for values at or beyond the usual limits of such assays. Conditions: source organism: Mus musculus.
The target in a further assay is HLA-C*12:03. Described as above. Conditions: source organism: Rattus norvegicus.
Assay [17] concerns the target HLA-C*14:02. Nature of the assay: IEDB peptide-MHC binding, purified MHC/competitive/fluorescence; filed as Kd, often an IC50 or EC50 that approximates it; ≥ and ≤ were set here for values at or beyond the usual limits of such assays. Conditions: source organism: Rattus norvegicus.
The next assay deals with HLA-B*15:42. Described as above.
The next assay addresses HLA-B*45:06. Described as above.
A further assay addresses HLA-B*83:01. Described as above.
Another assay addresses HLA-C*06:02. The assay can be described thus: IEDB peptide-MHC binding, purified MHC/direct/fluorescence; filed as Kd, often an IC50 or EC50 that approximates it; ≥ and ≤ were set here for values at or beyond the usual limits of such assays. Conditions: source organism: Escherichia coli F11.
Assay [18] concerns the target HLA-B*15:01. Nature of the assay: IEDB peptide-MHC binding, purified MHC/competitive/fluorescence; filed as Kd, often an IC50 or EC50 that approximates it; ≥ and ≤ were set here for values at or beyond the usual limits of such assays. Conditions: source organism: Escherichia coli F11.
Assay [19] deals with HLA-A*24:03. The description is as above. Conditions: source organism: Escherichia coli F11.
Another assay has as its target HLA-A*01:01. The description is as above. Conditions: source organism: Escherichia coli F11.
The target of a further assay is HLA-C*05:01. Nature of the assay: IEDB peptide-MHC binding, purified MHC/direct/fluorescence; filed as Kd, often an IC50 or EC50 that approximates it; ≥ and ≤ were set here for values at or beyond the usual limits of such assays. Conditions: source organism: Mycobacterium tuberculosis str. Haarlem.
Assay [20] concerns the target HLA-B*46:01. Nature of the assay: IEDB peptide-MHC binding, purified MHC/competitive/fluorescence; filed as Kd, often an IC50 or EC50 that approximates it; ≥ and ≤ were set here for values at or beyond the usual limits of such assays. Conditions: source organism: Mycobacterium tuberculosis str. Haarlem.
Setting [21] is: source organism: Zaire ebolavirus.
[22] abbreviates: source organism: Orthohantavirus andesense.
The mark [23] stands for this setting: source organism: Rattus norvegicus.
Where [24] appears, read: source organism: Escherichia coli F11.
The mark [25] stands for this setting: source organism: Mycobacterium tuberculosis str. Haarlem.

This passage reports Kd and IC50 results from the Immune Epitope Database (IEDB).

With AARIAGRHM, the Kd with HLA-C*14:02 [1] (source organism: Mycobacterium tuberculosis variant bovis BCG str. Pasteur 1173P2) stood at 0.654 µM.

GGRRTRREA: the IC50 was at least 120 µM with HLA-B*07:02 [2] (setting [21]) and at least 223 µM in the assay with HLA-B*08:01.

As to YLAGAGLAF, the Kd with HLA-C*14:02 [1] (source organism: dengue virus type 1) was 0.046 µM; with HLA-B*15:02 it was 0.003 µM; with HLA-C*15:02 it was at least 20 µM; with HLA-B*46:01 [3], 0.118 µM; in the assay with HLA-A*26:01 [4], 0.401 µM.

Take KTFVDLMRR: the figures for the Kd with HLA-A*31:01 and with HLA-A*11:01 [5] were 0.00102 µM and 0.0123 µM, respectively.

Take KVFLPNPAF: the half-maximal inhibitory concentration (IC50) with HLA-B*07:02 [2] (source organism: Variola virus) is at least 143 µM; with HLA-A*24:02, 9.77 µM; in the assay with HLA-B*15:01 [6] (source organism: Variola virus), 21 µM; with HLA-A*11:01 [7] it was 40.5 µM; with HLA-A*03:01 [8] it was 64.8 µM; with HLA-A*02:01 [9] (source organism: Variola virus), 55.1 µM.

ARDPHSGHFV: the dissociation constant (Kd) in the assay with HLA-A*02:01 [10] was 2.71 µM. Further, the IC50 with HLA-A*02:01 [11] (source organism: Homo sapiens) is at least 20 µM.

In the assay with HLA-C*07:02 (source organism: Vaccinia virus), YRHKNYYAL came in with a Kd of 0.057 µM.

For the sequence YLIPSVTSL, the Kd with HLA-A*68:02 was at least 20 µM; in the assay with HLA-A*02:12 it was at least 20 µM; with HLA-C*03:03 (setting [22]), at most 0.001 µM; in the assay with HLA-A*03:01 [12], at least 20 µM; with HLA-A*02:19, at least 20 µM; with HLA-A*02:01 [13], 0.0018 µM. Further, the dissociation constant Kd in the assay with HLA-A*24:03 [14], in the assay with HLA-A*29:02, with HLA-B*15:17 (setting [22]), in the assay with HLA-B*18:01, with HLA-A*69:01 and with HLA-B*27:03 (setting [22]) was at least 20 µM throughout. Also, the Kd with HLA-B*51:01, with HLA-B*57:01 and with HLA-A*26:01 [15] (setting [22]) was at least 20 µM each time.

Regarding RPVILSLPR, the figures for the IC50 with HLA-B*07:02 [2] (source organism: Variola virus), with HLA-A*11:01 [7] and with HLA-A*02:01 [9] (source organism: Variola virus) were 15 µM, at least 122 µM and at least 187 µM, respectively.

Consider FLRKNQRAL, for which the Kd in the assay with HLA-B*07:02 [16] is 0.0009 µM; in the assay with HLA-C*03:03 (setting [23]) it was 0.052 µM; with HLA-C*12:03, 0.383 µM; in the assay with HLA-B*15:17 (setting [23]), at least 20 µM; with HLA-C*14:02 [17], 0.0129 µM; with HLA-B*27:03 (setting [23]), at least 20 µM. Further, the Kd with HLA-B*15:42 (setting [23]), in the assay with HLA-B*45:06 (setting [23]) and in the assay with HLA-B*83:01 (setting [23]) was at least 5 µM throughout.

GLMHNQDGL: the figures for the IC50 with HLA-B*07:02 [2] (setting [21]), in the assay with HLA-B*15:01 [6] (setting [21]) and with HLA-A*02:01 [9] (setting [21]) were at least 81.9 µM, 51.6 µM and 1.58 µM, respectively.

Regarding YTLNNGGAF, the Kd with HLA-C*07:02 (setting [24]) was 0.991 µM; in the assay with HLA-C*06:02, at least 20 µM; with HLA-B*15:01 [18], 0.0594 µM; in the assay with HLA-A*24:03 [19] it was 0.0151 µM; with HLA-A*26:01 [15] (setting [24]), 0.0927 µM; with HLA-A*01:01, at least 20 µM.

NLYVSLLLL: the IC50 in the assay with HLA-A*02:01 [11] (source organism: Hepatitis B virus subtype ayw) came to 0.077 µM.

In the case of YAREAGIAM, the Kd with HLA-C*05:01 is at least 20 µM; with HLA-C*03:03 (setting [25]) it was at least 20 µM; with HLA-B*15:42 (setting [25]), at least 5 µM; with HLA-B*45:06 (setting [25]) it was at least 5 µM; with HLA-B*83:01 (setting [25]) it was at least 5 µM; with HLA-B*46:01 [20], at least 20 µM.

For QMVSSVTFI, the IC50 in the assay with HLA-A*02:01 [11] (source organism: Rhinovirus A) was 0.2 µM.

Turning to SLADTNSLAV, the IC50 with HLA-A*02:01 [11] (source organism: Homo sapiens) is 0.0794 µM.
